Assay results: patent US20230192819A1 (TWIST BIOSCIENCE, published 2023)
Positions count from the first letter of the chain named. Where “and” joins values, the source holds several entries; their conditions need not be identical. Identical values can stand only once. Like-named read-outs stand apart in the source and are kept apart here.

B1: Antibody 1-19 (Fc fusion)
chain: EVQLVESGGGLVQPGGSLRLSCAASGFTFSDYAMGWFRQAPGKEREVVARIYWSSANTYYADSVKGRFTISADNSKNTAYLQMNSLKPEDTAVYYCATYGYDSGRYYSWGQGTLVTVSS
B2: Antibody 1-1 (Fc fusion)
chain: EVQLVESGGGLVQPGGSLRLSCAASGSIGSINAMGWFRQAPGKEREWVAGISNGGTTNYADSVKGRFTISADNSKNTAYLQMNSLKPEDTAVYYCAADGVPEYSDYASGPVWGQGTLVTVSS
B3: Antibody 1-8 (Fc fusion)
chain: EVQLVESGGGLVQPGGSLRLSCAASGRTLSRYTMGWFRQAPGKEREFVASITSGGTTNYADSVKGRFTISADNSKNTAYLQMNSLKPEDTAVYYCAKEDVGKPFDWGQGTLVTVSS
B4: Antibody 1-14 (Fc fusion)
chain: EVQLVESGGGLVQPGGSLRLSCAASGFTPDDYAMGWFRQAPGKEREFVAAINWSGVTTYHYYADSVKGRFTISADNSKNTAYLQMNSLKPEDTAVYYCASDESDAANWGQGTLVTVSS
B5: Antibody 1-15 (Fc fusion)
chain: EVQLVESGGGLVQPGGSLRLSCAASGGIFSDMFMGWFRQAPGKEREFVATIDWSGDTAFYADSVKGRFTISADNSKNTAYLQMNSLKPEDTAVYYCAVDLSGDAVYDWGQGTLVTVSS
B6: Antibody 1-7 (Fc fusion)
chain: EVQLVESGGGLVQPGGSLRLSCAASGGTFSSIGMGWFRQAPGKEREFVAAISWDGGATAYADSVKGRFTISADNSKNTVYLQMNSLKPEDTAVYYCAKEDVGKPFDWGQGTLVTVSS
B7: Antibody 1-10 (Fc fusion)
chain: B6 chain with G16S, V79A

Key:
[1] = target: T1, S1 variant B.1.1.7: UK (Acro) spike protein (SARS-CoV-2, UniProt P0DTC2 16-1213); experiment: SPR (Carterra LSA)
[2] = target: T2, Acro S1 spike protein (SARS-CoV-2) (SARS-CoV-2, UniProt P0DTC2 16-685); experiment: SPR (Carterra LSA)
[3] = target: T3, C52Hk S. African variant (Acro) spike protein (SARS-CoV-2, UniProt P0DTC2 16-1213); experiment: SPR (Carterra LSA)
[4] = target: T4, C52Hg Brazilian variant (Acro) spike protein (SARS-CoV-2, UniProt P0DTC2 16-1213); experiment: SPR (Carterra LSA)
[5] = target: T1, S1 variant B.1.1.7: UK (Acro) spike …; experiment: SPR (Carterra LSA); antibody on chip, spike protein as analyte; summary table
[6] = target: T2, Acro S1 spike protein (SARS-CoV-2); experiment: as above
[7] = target: T3, C52Hk S. African variant (Acro) spike …; experiment: as above
[8] = target: T4, C52Hg Brazilian variant (Acro) spike …; experiment: as above
[9] = target: T4, C52Hg Brazilian variant (Acro) spike …
[10] = target: T1, S1 variant B.1.1.7: UK (Acro) spike …
[11] = target: T4, C52Hg Brazilian variant (Acro) spike …; experiment: SPR (Carterra LSA); […]; 1:1 model; […]
[12] = target: T2, Acro S1 spike protein (SARS-CoV-2)
[13] = target: Delta variant (Acro) spike protein (SARS-CoV-2, UniProt P0DTC2 16-1213)
[14] = target: T3, C52Hk S. African variant (Acro) spike …
[15] = target: California Variant W152C_L452R_D614G
[16] = target: T1, S1 variant B.1.1.7: UK (Acro) spike …; experiment: SPR (Carterra LSA); […]; 1:1 model; […]
[17] = target: T3, C52Hk S. African variant (Acro) spike …; experiment: SPR (Carterra LSA); […]; 1:1 model; […]
[18] = target: T2, Acro S1 spike protein (SARS-CoV-2); experiment: SPR (Carterra LSA); […]; 1:1 model; […]

Binder	Kd [5]	Kd [6]	Kd [7]	Kd [8]	koff [9]	Kd [10]	koff [10]	Kd [11]	koff [11]	kon [11]	Kd [12]	koff [12]	kon [12]	IC50 [15]	Kd [16]	koff [16]	kon [16]	Kd [17]	koff [17]	kon [17]	other results
B1																					binding result [1]: no binding; binding result [2]: no binding; binding result [3]: no binding; binding result [4]: no binding
B2	0.867 nM	0.677 nM	1.07 nM	0.691 nM	0.000724 s⁻¹ and 0.000956 s⁻¹	0.82 nM and 2.06 nM	0.00024 s⁻¹ and 0.000189 s⁻¹	0.691 nM	0.00038 s⁻¹	550000 M⁻¹ s⁻¹	2.8 nM and 4 nM	0.000378 s⁻¹ and 0.000446 s⁻¹	135000 M⁻¹ s⁻¹ and 112000 M⁻¹ s⁻¹	4.4 nM	0.867 nM	0.00052 s⁻¹	600000 M⁻¹ s⁻¹	1.07 nM	0.00058 s⁻¹	540000 M⁻¹ s⁻¹	Kd [9]: 5.57 nM and 9.51 nM; kon [9]: 130000 M⁻¹ s⁻¹ and 100000 M⁻¹ s⁻¹; Kd [13]: 2.31 nM and 2.22 nM; koff [13]: 0.000433 s⁻¹ and 0.000358 s⁻¹; kon [13]: 188000 M⁻¹ s⁻¹ and 161000 M⁻¹ s⁻¹; Kd [14]: 6.2 nM; koff [14]: 0.000806 s⁻¹; kon [14]: 130000 M⁻¹ s⁻¹; Kd [18]: 0.677 nM; koff [18]: 0.00042 s⁻¹; kon [18]: 620000 M⁻¹ s⁻¹
B3	2.26 nM		1 nM	0.321 nM	0.000158 s⁻¹ and 0.00011 s⁻¹	3.2 nM	0.000572 s⁻¹	0.321 nM	0.00017 s⁻¹	530000 M⁻¹ s⁻¹	2.22 nM and 4.13 nM	0.000412 s⁻¹ and 0.000662 s⁻¹	186000 M⁻¹ s⁻¹ and 160000 M⁻¹ s⁻¹	2.72 nM	2.26 nM	0.0007 s⁻¹	310000 M⁻¹ s⁻¹	1 nM	0.00057 s⁻¹	570000 M⁻¹ s⁻¹	Kd [9]: 2.53 nM and 1.9 nM; kon [9]: 62400 M⁻¹ s⁻¹ and 58000 M⁻¹ s⁻¹; kon [10]: 179000 M⁻¹ s⁻¹; Kd [13]: 2.39 nM and 3.18 nM; koff [13]: 0.000409 s⁻¹ and 0.000318 s⁻¹; kon [13]: 171000 M⁻¹ s⁻¹ and 100000 M⁻¹ s⁻¹
B4																					binding result [1]: no binding; binding result [2]: no binding; binding result [3]: no binding; binding result [4]: no binding
B5	0.828 nM	10.4 nM	1.4 nM	1.04 nM	1e-05 s⁻¹	0.708 nM and 0.82 nM	5.5e-05 s⁻¹	1.04 nM	0.00028 s⁻¹	270000 M⁻¹ s⁻¹	5.43 nM and 10.9 nM	0.000339 s⁻¹ and 0.000547 s⁻¹	62400 M⁻¹ s⁻¹ and 50200 M⁻¹ s⁻¹	66.7 nM	0.828 nM	0.00024 s⁻¹	290000 M⁻¹ s⁻¹	1.04 nM	0.00028 s⁻¹	270000 M⁻¹ s⁻¹	kon [10]: 77700 M⁻¹ s⁻¹; Kd [18]: 10.4 nM; koff [18]: 0.00094 s⁻¹; kon [18]: 90000 M⁻¹ s⁻¹
B6	1.11 nM	1.31 nM	1.36 nM	0.962 nM	0.00081 s⁻¹ and 0.00121 s⁻¹			0.962 nM	0.00025 s⁻¹	260000 M⁻¹ s⁻¹			130000 M⁻¹ s⁻¹ and 161000 M⁻¹ s⁻¹	0.111 nM	1.11 nM	0.0004 s⁻¹	360000 M⁻¹ s⁻¹	1.36 nM	0.00049 s⁻¹	360000 M⁻¹ s⁻¹	Kd [9]: 8.53 nM and 12.5 nM; kon [9]: 95000 M⁻¹ s⁻¹ and 96200 M⁻¹ s⁻¹; kon [10]: 144000 M⁻¹ s⁻¹ and 188000 M⁻¹ s⁻¹; Kd [13]: 0.114 nM and 0.0579 nM; koff [13]: 1.87e-05 s⁻¹ and 1e-05 s⁻¹; kon [13]: 164000 M⁻¹ s⁻¹ and 173000 M⁻¹ s⁻¹; Kd [14]: 8.2 nM and 7.9 nM; koff [14]: 0.000459 s⁻¹ and 0.000521 s⁻¹; kon [14]: 56000 M⁻¹ s⁻¹ and 66000 M⁻¹ s⁻¹; Kd [18]: 1.31 nM; koff [18]: 0.00047 s⁻¹; kon [18]: 360000 M⁻¹ s⁻¹
B7	0.481 nM	1.95 nM	13.9 nM	127 nM		0.33 nM and 0.27 nM	2.54e-05 s⁻¹ and 2.32e-05 s⁻¹	127 nM	0.00081 s⁻¹	6400 M⁻¹ s⁻¹	2.6 nM	0.00053 s⁻¹ and 0.000728 s⁻¹	280000 M⁻¹ s⁻¹	0.13 nM	0.481 nM	0.00013 s⁻¹	270000 M⁻¹ s⁻¹	13.9 nM	0.00089 s⁻¹	64000 M⁻¹ s⁻¹	kon [10]: 77000 M⁻¹ s⁻¹ and 86000 M⁻¹ s⁻¹; Kd [13]: 7.43 nM and 5.43 nM; koff [13]: 0.000706 s⁻¹ and 0.000516 s⁻¹; kon [13]: 95000 M⁻¹ s⁻¹; Kd [18]: 1.96 nM; koff [18]: 0.00053 s⁻¹; kon [18]: 270000 M⁻¹ s⁻¹
